Laboratory results taken from patent US20200325208A1.
Read-outs that look alike come from different tables or passages of the source.

Columns and labels:
Assay in all cases: ELISA, antigen captured by anti-His antibody on plate, HRP anti-IgG Fc detection
[1] = biological target: Human VEGF121/VEGF-A protein (human VEGF 121 isoform) with 6-His tag (human) (UniProt P15692)
[2] = biological target: Human VEGF121/VEGF-A protein (human VEGF 121 isoform) with 6-His tag (human) (UniProt P15692); remark: listed apart in the source
[3] = biological target: Human VEGF121/VEGF-A protein (human VEGF 121 isoform) with 6-His tag (human) (UniProt P15692); remark: listed apart in the source
[4] = biological target: Human VEGF121/VEGF-A protein (human VEGF 121 isoform) with 6-His tag (human) (UniProt P15692); remark: listed apart in the source

Chain of Human VEGF121/VEGF-A protein (human VEGF 121 isoform) with 6-His tag (human) (P15692 other isoform, or with tags, fused parts or gaps limits assumed): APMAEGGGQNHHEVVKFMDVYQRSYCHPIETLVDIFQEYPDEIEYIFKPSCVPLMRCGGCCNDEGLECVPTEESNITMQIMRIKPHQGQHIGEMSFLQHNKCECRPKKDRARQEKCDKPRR
Chain of Aflibercept (VEGFR-Fc) (Fc fusion) (chain): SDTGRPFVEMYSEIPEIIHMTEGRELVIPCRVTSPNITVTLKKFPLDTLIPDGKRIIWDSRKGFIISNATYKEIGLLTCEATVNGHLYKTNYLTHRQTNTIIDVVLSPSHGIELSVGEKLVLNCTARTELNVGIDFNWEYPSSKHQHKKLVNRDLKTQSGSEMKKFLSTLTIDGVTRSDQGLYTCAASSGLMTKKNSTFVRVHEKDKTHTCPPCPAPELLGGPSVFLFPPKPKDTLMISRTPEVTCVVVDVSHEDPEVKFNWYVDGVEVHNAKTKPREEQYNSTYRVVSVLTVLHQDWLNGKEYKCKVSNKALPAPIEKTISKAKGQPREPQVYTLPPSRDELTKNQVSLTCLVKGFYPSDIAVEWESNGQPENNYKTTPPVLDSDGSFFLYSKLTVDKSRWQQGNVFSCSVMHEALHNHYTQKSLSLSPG

Aflibercept (VEGFR-Fc) (Fc fusion)
EC50 [1]: 12.2 nM
EC50 [2]: 21.4 nM
EC50 [3]: 15.3 nM
EC50 [4]: 10.5 nM
